Test results from paper PMC2940226 (Neurobiology of disease, 2010).

Biological target: GABAA receptor γ2 subunit (rat (endogenous in hippocampus), UniProt P18508 39-466)
Experiment: co-IP

GABAA receptor γ2 subunit, sequence (P18508 39-466): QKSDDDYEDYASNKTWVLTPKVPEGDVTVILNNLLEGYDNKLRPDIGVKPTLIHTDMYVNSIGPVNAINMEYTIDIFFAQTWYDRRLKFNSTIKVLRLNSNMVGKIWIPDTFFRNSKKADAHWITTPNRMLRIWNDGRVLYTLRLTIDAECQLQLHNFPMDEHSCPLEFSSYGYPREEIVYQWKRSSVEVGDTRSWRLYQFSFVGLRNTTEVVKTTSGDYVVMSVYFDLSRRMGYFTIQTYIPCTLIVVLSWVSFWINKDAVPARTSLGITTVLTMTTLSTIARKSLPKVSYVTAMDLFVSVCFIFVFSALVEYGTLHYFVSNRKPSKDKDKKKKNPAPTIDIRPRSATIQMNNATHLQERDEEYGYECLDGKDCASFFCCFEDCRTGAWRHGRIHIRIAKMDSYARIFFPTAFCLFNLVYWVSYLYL

B1: GABAA receptor α4 subunit (natural protein, rat (endogenous in hippocampus), UniProt P28471 36-552, looked up)
chain: QNSKDEKLCPENFTRILDSLLDGYDNRLRPGFGGPVTEVKTDIYVTSFGPVSDVEMEYTMDVFFRQTWIDKRLKYDGPIEILRLNNMMVTKVWTPDTFFRNGKKSVSHNMTAPNKLFRIMRNGTILYTMRLTISAECPMRLVDFPMDGHACPLKFGSYAYPKSEMIYTWTKGPEKSVEVPKESSSLVQYDLIGQTVSSETIKSITGEYIVMTVYFHLRRKMGYFMIQTYIPCIMTVILSQVSFWINKESVPARTVFGITTVLTMTTLSISARHSLPKVSYATAMDWFIAVCFAFVFSALIEFAAVNYFTNIQMQKAKKKISKPPPEVPAAPVLKEKHTETSLQNTHANLNMRKRTNALVHSESDVNSRTEVGNHSSKTTAAQESSETTPKAHLASSPNPFSRANAAETISAAARGLSSAASPSPHGTLQPAPLRSASARPAFGARLGRIKTTVNTTGVPGNVSATPPPSAPPPSGSGTSKIDKYARILFPVTFGAFNMVYWVVYLSKDTMEKSESLM
ratio of the α4-γ2 co-precipitation (normalised α4 to γ2), control animals: 0.55 ± 0.02 | ratio of the α4-γ2 co-precipitation (normalised α4 to γ2), epileptic animals: 1.12 ± 0.24
